Experimental data as given in patent US8304206B2, “Mass spectrometry assays for identifying compounds that activate deacetylases” (Sirtris Pharmaceuticals, Inc., priority 2005, dated 2012).
Several values for one entry are separate records, joined by “and”; a condition that tells them apart may be missing. Equal values may be shown once.

Substrate: CCCC[C@H](NC(=O)[C@H](CCCCNC(C)=O)NC(=O)[C@H](CO)NC(=O)[C@H](Cc1c[nH]cn1)NC(=O)[C@H](CO)NC(=O)[C@H](CO)NC(=O)[C@@H](NC(=O)[C@H](CO)NC(=O)[C@H](CCC(N)=O)NC(=O)CNC(=O)[C@H](CCCCNC(=O)CCCC[C@@H]1SC[C@@H]2NC(=O)N[C@@H]21)NC(=O)[C@H](CCC(=O)O)NC(=O)[C@H](CCC(=O)O)NC(C)=O)[C@@H](C)O)C(=O)N[C@@H](CO)C(=O)N[C@H](C(=O)N[C@@H](CCC(=O)O)C(=O)NCC(=O)N[C@@H](CCCCNC(=O)c1ccc2c(c1)C(=O)OC21c2ccc(N(C)C)cc2Oc2cc(N(C)C)ccc21)C(=O)N[C@@H](CCC(=O)O)C(=O)N[C@@H](CCC(=O)O)C(N)=O)[C@@H](C)O
Assay: SIRT1 Km for Acetylated Peptide Substrate (mass spectrometry)
Format: biochemical, human
Details: pH 8.0, 25.0 °C
Procedure: Briefly, 1 μL of vehicle (DMSO) was added to each well of a Costar 96-well clear round bottom assay plate and 10 μL of 10% formic acid was added to all of the wells in row A. The Acetylated Peptide Substrate was serially diluted. Wells A2, A3, A4, A5, A6, A7, A8, A9, A10, A11 and A12 of a Costar 2 mL 96 well Assay Block were filled with 600 μL of Substrate Dilution Working Solution (SDWS; 4 mM NAD^+, 50 mM Tris HCl pH 8.0, 137 mM NaCl, 2.7 mM KCl, 1 mM MgCl2, 5 mM DTT, and 0.05% BSA). […] The APSTD-WS was serially diluted into SDWS by transferring 600 μL of APSTD-WS from well A1 to […] of the Costar 2 mL 96 well Assay Block. The solution was mixed 5 times and the process was continued by moving across row A, until well A12 was reached.
The Enzyme Working Solution (20 nM SIRT1, 50 mM Tris HCl pH 8.0, 137 mM NaCl, 2.7 mM KCl, 1 mM MgCl2, 5 mM DTT, 0.05% BSA) was prepared. […]
At 0, 3, 6, 9, 12, 15, 20, and 25 minutes, the reaction was stopped with 10% formic acid and the conversion of substrate to product was determined by mass spectrometry.
SIRT1 enzyme activity at 12 concentrations of SIRT1 Acetylated Peptide Substrate was monitored by comparing the percent conversion of Acetylated Peptide Substrate to Deacetylated Peptide Product over time. The reaction rate at each substrate concentration was determined as the slope of the product formation versus time plot in the linear range. […]

B1: SIRT1 (Homo sapiens) (protein)
chain: MADEAALALQPGGSPSAAGADREAASSPAGEPLRKRPRRDGPGLERSPGEPGGAAPEREVPAAARGCPGAAAAALWREAEAEAAAAGGEQEAQATAAAGEGDNGPGLQGPSREPPLADNLYDEDDDDEGEEEEEAAAAAIGYRDNLLFGDEIITNGFHSCESDEEDRASHASSSDWTPRPRIGPYTFVQQHLMIGTDPRTILKDLLPETIPPPELDDMTLWQIVINILSEPPKRKKRKDINTIEDAVKLLQECKKIIVLTGAGVSVSCGIPDFRSRDGIYARLAVDFPDLPDPQAMFDIEYFRKDPRPFFKFAKEIYPGQFQPSLCHKFIALSDKEGKLLRNYTQNIDTLEQVAGIQRIIQCHGSFATASCLICKYKVDCEAVRGDIFNQVVPRCPRCPADEPLAIMKPEIVFFGENLPEQFHRAMKYDKDEVDLLIVIGSSLKVRPVALIPSSIPHEVPQILINREPLPHLHFDVELLGDCDVIINELCHRLGGEYAKLCCNPVKLSEITEKPPRTQKELAYLSELPPTPLHVSEDSSSPERTSPPDSSVIVTLLDQAAKSNDDLDVSESKGCMEEKPQEVQTSRNVESIAEQMENPDLKNVGSSTGEKNERTSVAGTVRKCWPNRVAKEQISRRLDGNQYLFLPPNRYIFHGAEVYSDSEDDVLSSSSCGSNSDSGTCQSPSLEEPMEDESEIEEFYNGLEDEPDVPERAGGAGFGTDGDDQEAINEAISVKQEVTDMNYPSNKS
notes: The SirT1 gene was cloned into a T7-promoter containing vector and transformed into BL21(DE3); His-tag (N); made in house; host or cells: E. coli BL21(DE3)
Which Km (other: Sirt1, Mass Spectrometry, present invention) does the source give for B1 here?
Its Km is 11.6 µM.

And the Km (other: single replicate plates, 2 mM NAD+, 1% DMSO)?
The Km was 11.2 µM and 11.9 µM.
